# Source: patent US20070110818A1, “Milk fractions and milk preparations for treating and/or preventing cox-2 mediated diseases” (priority 2003, published 2007)
# T1: COX-2 (Homo sapiens, UniProt P35354)
# T1 construct: treated with 100 nM (nmol/l) phorbol 12-myristate 13-acetate for 6 h at 37° C. to induce COX-2 isoenzyme; endogenous in cells; host or cells: HUV-EC-C (ATCC CRL1730), PMA-induced
# T1 sequence (P35354 18-604): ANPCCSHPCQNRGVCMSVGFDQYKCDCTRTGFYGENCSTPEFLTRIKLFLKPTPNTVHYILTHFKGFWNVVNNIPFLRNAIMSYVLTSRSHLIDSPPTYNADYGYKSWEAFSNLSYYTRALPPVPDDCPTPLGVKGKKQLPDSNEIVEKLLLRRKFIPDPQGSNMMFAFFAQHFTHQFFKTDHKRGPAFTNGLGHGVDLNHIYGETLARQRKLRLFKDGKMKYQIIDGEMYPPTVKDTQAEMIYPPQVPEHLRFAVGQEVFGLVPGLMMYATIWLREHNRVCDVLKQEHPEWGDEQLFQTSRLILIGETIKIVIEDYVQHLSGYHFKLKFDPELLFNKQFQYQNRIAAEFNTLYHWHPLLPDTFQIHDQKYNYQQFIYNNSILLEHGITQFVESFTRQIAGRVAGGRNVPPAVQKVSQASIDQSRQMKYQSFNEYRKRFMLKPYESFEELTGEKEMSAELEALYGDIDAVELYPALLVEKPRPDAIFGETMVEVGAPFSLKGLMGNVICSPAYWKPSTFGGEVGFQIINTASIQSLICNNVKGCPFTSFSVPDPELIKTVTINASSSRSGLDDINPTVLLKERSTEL
# Target: T1, COX-2
# Test: COX-2 screening in PMA-induced HUV-EC-C cells (Prostaglandine-E2 production by RIA)
# Type: cell-based
# Method: HUV-EC-C cells (a permanent endothelial cell line derived from the vein of a normal human umbilical cord; ATCC CRL1730; M. Miralpeix, M. Camacho et al., Brit. J. Pharmacol. 121 (1997), 171-180), were seeded onto 96-well plates (RPMI 1640+10% FCS) and treated with 100 nM (nmol/l) phorbol 12-myristate 13-acetate for 6 h at 37° C. to induce COX-2 isoenzyme. 50 μM (μmol/l) arachidonic acid were then added and the cells were incubated in the presence of test compounds or mixtures for 30 min at 37° C. Prostaglandine-E2 production was measured by radioimmuno assay (RIA) and the radioactivity determined with a scintillation counter (Topcount, Packard) using a liquid scintillation cocktail (Packard).
# The results obtained are expressed as a percent of control values and as a percent inhibition of control values obtained in the presence of the test compounds. The control values correspond to the COX-2 activity of HUV-EC-C cells after stimulation with Phorbol Myristate Acetate (PMA) during 6 hours at 37° C. (can be done also with Tumor Necrosis Factor type alpha: TNFα) in absence of test compound.
# The concentration causing a half-maximal inhibition of control values (IC50 value) and Hill coefficients (nH) were determined for the reference compounds (cycloheximide) by nonlinear regression analysis of their inhibition curves. These parameters were obtained by Hill equation curve fitting. […]
molecule,measurement,value
"Lactoferrin (protein, UniProt P02788 20-710, looked up) Lactotransferrin: GRRRSVQWCAVSQPEATKCFQWQRNMRKVRGPPVSCIKRDSPIQCIQAIAENRADAVTLDGGFIYEAGLAPYKLRPVAAEVYGTERQPRTHYYAVAVVKKGGSFQLNELQGLKSCHTGLRRTAGWNVPIGTLRPFLNWTGPPEPIEAAVARFFSASCVPGADKGQFPNLCRLCAGTGENKCAFSSQEPYFSYSGAFKCLRDGAGDVAFIRESTVFEDLSDEAERDEYELLCPDNTRKPVDKFKDCHLARVPSHAVVARSVNGKEDAIWNLLRQAQEKFGKDKSPKFQLFGSPSGQKDLLFKDSAIGFSRVPPRIDSGLYLGSGYFTAIQNLRKSEEEVAARRARVVWCAVGEQELRKCNQWSGLSEGSVTCSSASTTEDCIALVLKGEADAMSLDGGYVYTAGKCGLVPVLAENYKSQQSSDPDPNCVDRPVEGYLAVAVVRRSDTSLTWNSVKGKKSCHTAVDRTAGWNIPMGLLFNQTGSCKFDEYFSQSCAPGSDPRSNLCALCIGDEQGENKCVPNSNERYYGYTGAFRCLAENAGDVAFVKDVTVLQNTDGNNNEAWAKDLKLADFALLCLDGKRKPVTEARSCHLAMAPNHAVVSRMDKVERLKQVLLHQQAKFGRNGSDCPDKFCLFQSETKNLLFNDNTECLARLHGKTTYEKYLGPQYVAGITNLKKCSTSPLLEACEFLRK",cyclooxygenase-2 inhibiting activity (in words),not to have any cyclooxygense-2 inhibiting activity
